Source: patent publication US20180112008A1 (Memorial Sloan Kettering, published 2018)
Ends that are not written are not given here. * marks the point of attachment. GlcNAc2 = N-linked chitobiose, CC(=O)N[C@@H]1[C@@H](O)[C@H](O[C@@H]2O[C@H](CO)[C@@H](O)[C@H](O)[C@H]2NC(C)=O)[C@@H](CO)O[C@H]1*

T1: (GlcNAc2)2-18-mer glycopeptide, unconjugated (human)
T1 construct: Used in ELISA without KLH; also called 18-mer(chitobiose)2[C-T22-V38]; 18mer-chitobiose peptide
T1 peptide: Ac-CTRN(GlcNAc2)GTQLQN(GlcNAc2)FTLDRSSV-NH2

T2: MUC16 unrelated peptide 18mer
T2 construct: Negative control peptide without glycan
T2 peptide: GAVPRSATINVSRIATGP

T3: non-glycosylated 15-mer MUC16 peptide (human)
T3 construct: Same peptide as the GlcNAc2-15-mer without the glycan; also called unglycosylated 15-mer
T3 peptide: CGTQLQNFTLDRSSV

T4: MUC16 18mer (not fully specified)
T4 construct: also called non-glycosylated 18-mer MUC16 peptide
T4 peptide: CTRNGTQLQNFTLDRSSV

T5: MUC16 unrelated peptide 18mer+GlcNAc2 (also: GlcNAc2 (chitobiose), site not given here)
T5 construct: Negative control glycopeptide; also called unrelated chitobiose-linked peptide
T5 peptide: GAVPRSATINVSRIATGP

T6: MUC16^c114 on SKOV3 cells with MGAT5 knock-down (human, N-glycans without MGAT5-dependent tetra-antennary branching ; chain 1 pos 1, 24 and 30: N-glycosylated Asn, written N; the glycans lack MGAT5-dependent tetra-antennary branching (shRNA knock-down))
T6 construct: Same polypeptide as MUC16^c114, other glycoform (shRNA against MGAT5); also called SKOV3-shMGAT5-c114; MUC16^c114-shMGAT5; not shown: hrGFP of the phrGFP II-C vector, fused at the cytoplasmic carboxy-terminus
T6 chain: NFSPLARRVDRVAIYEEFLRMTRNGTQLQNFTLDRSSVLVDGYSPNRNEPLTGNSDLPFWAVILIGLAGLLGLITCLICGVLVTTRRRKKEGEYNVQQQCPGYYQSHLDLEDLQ

T7: MUC16^c114 (human, capable of N-glycosylation at Asn1, Asn24 and Asn30 ; chain 1 pos 1, 24, 30: Asn capable of N-glycosylation on the transfected cells, written N)
T7 construct: The forward primer adds Met-Val before Asn1; also called MUC16^c114-GFP; SKOV3 MUC16^c114; not shown: hrGFP of the phrGFP II-C vector fused at the cytoplasmic carboxy-terminus, with its short cloning linker
T7 chain: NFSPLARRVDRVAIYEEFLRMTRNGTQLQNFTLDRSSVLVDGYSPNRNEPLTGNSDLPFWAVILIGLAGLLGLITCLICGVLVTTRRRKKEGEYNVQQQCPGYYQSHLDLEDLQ

T8: MUC16 18mer + GlcNAc1 (also: N-linked single GlcNAc, Asn (N4, N10 or both) not given here)
T8 construct: also called 18-mer with a single GlcNAc
T8 peptide: CTRNGTQLQNFTLDRSSV

T9: MUC16 nonglycosylated peptide 2 (human)
T9 construct: Peptide used to elicit the 4H11 antibody; also called nonglycosylated MUC16 peptide 2
T9 peptide: CTLDRSSVLVDGYSPNRNE

T10: biotinylated chitobiose-conjugated 18-mer glycopeptide (human, also: biotinylated, site not given here)
T10 construct: Cys plus T22-V38 of MUC16^c114; The range is derived from T22-V38 and the statement that c114 is 1777-1890; the N-terminal Cys is added; also called (GlcNAc2)2-18-mer, biotinylated; 18-mer(chitobiose)2[C-T22-V38]
T10 peptide: Ac-CTRN(GlcNAc2)GTQLQN(GlcNAc2)FTLDRSSV-NH2

T11: GlcNAc2-15-mer glycopeptide, unconjugated (human)
T11 construct: Cys plus G25-V38 of MUC16^c114; Used in ELISA without KLH; also called 15-mer(chitobiose)[C-G25-V38]; 15mer-chitobiose peptide
T11 peptide: Ac-CGTQLQN(GlcNAc2)FTLDRSSV-NH2

T12: MUC16 18mer + GlcNAc2-Trimannose (also: N-linked Man3GlcNAc2, Asn site not given here)
T12 construct: also called 18-mer with Man3GlcNAc2
T12 peptide: CTRNGTQLQNFTLDRSSV

T13: MUC16 18mer + GlcNAc2-FUCOSE1 (also: N-linked GlcNAc2Fuc (fucosylated chitobiose), Asn site not given here)
T13 construct: also called 18-mer with fucosylated chitobiose (GlcNAc2Fuc)
T13 peptide: CTRNGTQLQNFTLDRSSV


What was measured:
[1] = biological target: T1, (GlcNAc2)2-18-mer glycopeptide, …; test: ELISA during fusion screen, dilution 400, column 18S
[2] = biological target: T2, MUC16 unrelated peptide 18mer; test: sandwich ELISA on 'MUC16 unrelated peptide 18mer'; Blank 0.013
[3] = biological target: T3, non-glycosylated 15-mer MUC16 peptide; test: ELISA 12/24/13 (sups from time of freezing), dilution 400, column 15
MUC16 18mer [4] = biological target: T4, MUC16 18mer; test: ELISA 12/24/13 (sups from time of freezing), dilution 400, column 18
[5] = biological target: T5, MUC16 unrelated peptide 18mer+GlcNAc2; test: sandwich ELISA on 'MUC16 unrelated 18mer + GlcNAc2'; Blank 0.014
[6] = biological target: T6, MUC16^c114 on SKOV3 cells with MGAT5 …; test: FACS, SKOV3-shMGAT5-c114
MUC16^c114 = biological target: T7, MUC16^c114; test: FACS, SKOV3-c114
MUC16 18mer + GlcNAc1 = biological target: T8, MUC16 18mer + GlcNAc1; test: sandwich ELISA on 'MUC16 18mer + GlcNAc1'; Blank 0.042
[7] = biological target: T9, MUC16 nonglycosylated peptide 2; test: sandwich ELISA on 'MUC16 Nonglycosylated Peptide2'; Blank 0.029
[8] = biological target: T10, biotinylated chitobiose-conjugated …; test: binding affinity table of Example 3; target not named there, taken as in Table 9 (Octet BLI, biotinylated chitobiose 18-mer)
Outline: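 Binding was measured by biolayer interferometry on a ForteBio Octet QK, with 5 μg/mL biotinylated chitobiose-conjugated 18-mer glycopeptide loaded onto streptavidin biosensors. Excess antigen was washed off, and mouse antibodies were run at 10 μg/mL for association and dissociation steps. Kd, kon and koff came from a 1:1 binding site model with partial fit.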

[9] = biological target: T1, (GlcNAc2)2-18-mer glycopeptide, …; test: sandwich ELISA on 'MUC16 18mer + GlcNAc2'; Blank 0.029
[10] = biological target: T11, GlcNAc2-15-mer glycopeptide, …; test: ELISA 12/24/13 (sups from time of freezing), dilution 400, column 15S
[11] = biological target: T1, (GlcNAc2)2-18-mer glycopeptide, …; test: ELISA 12/24/13 (sups from time of freezing), dilution 400, column 18S
[12] = biological target: T3, non-glycosylated 15-mer MUC16 peptide; test: sandwich ELISA on 'MUC16 15mer'; Blank 0.021
[13] = biological target: T11, GlcNAc2-15-mer glycopeptide, …; test: sandwich ELISA on 'MUC16 15mer + GlcNAc2'; Blank 0.019
[14] = biological target: T12, MUC16 18mer + GlcNAc2-Trimannose; test: sandwich ELISA on 'MUC16 18mer + GlcNAc2-Trimannose'; Blank 0.035
MUC16 18mer [15] = biological target: T4, MUC16 18mer; test: sandwich ELISA on 'MUC16 18mer'; Blank 0.032
MUC16 18mer [16] = biological target: T4, MUC16 18mer; test: ELISA during fusion screen, dilution 400, column 18
[17] = biological target: T13, MUC16 18mer + GlcNAc2-FUCOSE1; test: sandwich ELISA on 'MUC16 18mer + GlcNAc2-FUCOSE1'; Blank 0.044

| ELISA signal [1] | ELISA signal [2] | ELISA signal [3] | ELISA signal (MUC16 18mer [4]) | ELISA signal [5] | geometric mean phycoerythrin (PE) fluorescence [6] | geometric mean phycoerythrin (PE) fluorescence (MUC16^c114) | ELISA signal (MUC16 18mer + GlcNAc1) | ELISA signal [7] | Kd [8] [nM] | koff [8] [s⁻¹] | ELISA signal [9] | ELISA signal [10] | ELISA signal [11] | ELISA signal [12] | ELISA signal [13] | ELISA signal [14] | ELISA signal (MUC16 18mer [15]) | ELISA signal (MUC16 18mer [16]) | ELISA signal [17] | Binder | also measured |
| --- | --- | --- | --- | --- | --- | --- | --- | --- | --- | --- | --- | --- | --- | --- | --- | --- | --- | --- | --- | --- | --- |
| 0.64 | 0.02 | 0.44 | 0.45 | 0.02 | 855 | 2050 | 0.95 | 0.02 | 11.1 | 0.000678 | 1.06 | 0.14 | 0.55 | 1.06 | 1.44 | 0.89 | 1.01 | 0.39 | 1.03 | 18C6.D12 (antibody, V domains shown, Mouse monoclonal from a hybridoma; also called MUC16 Glycosylation Antibody 18C6) VH: QVTLKESGPGILQPSQTLSLTCSFSGFSLSTVGMGVGWSRQPSGKGLEWLAHIWWDDEDKYYNPALKSRLTISKDTSKNQVFLKIANVDTADTATYYCTRIGTAQATDALDYWGQGTSVTVSS VL: DIVMTQAAPSVPVTPGESVSISCRSSKSLLHSNGNTYLYWFLQRPGQSPQRLIYYMSNLASGVPDRFSGRGSGTDFTLRISRVEAEDVGVYYCMQSLEYPLTFGGGTKLEIK | – |
| 0.47 | 0.03 | 0.3 | 0.2 | 0.03 | 525 | 617 | 0.96 | 0.03 | 63.7 | 0.00242 | 1.1 | 0.1 | 0.36 | 1.17 | 1.51 | 0.99 | 0.98 | 0.38 | 1.01 | 19C11.H6 (antibody, V domains shown, Mouse monoclonal from a hybridoma; Used as 89Zr-DFO-labelled antibody in the internalization assay; also called MUC16 Glycosylation Antibody 19C11) VH: QVNLKESGPGKLQPSQTLSLTCSFSGFSLSTLGMGVGWIRQSSGKGLEWLAHIWWDDDKYYNPALKSRLTISRATSKNQVFLKIVNVGTADTATYYCARIGTAQATDALDYWGQGTSVTVSS VL: DIVMTQAAPSIPVTPGESVSISCRSSKSLLHSNGNTYLYWFLQRPGQSPQRLIYYMSNLASGVPDRFSGRGSGTDFTLKISRVEAGDVGVYYCMQGLEHPLTFGGGTKLEIK | kon [8]: 38000 M⁻¹ s⁻¹ |
| 0.92 | 0.04 | 0.44 | 0.33 | 0.03 | 289 | 492 | 1.03 | 0.02 | 13.8 | 0.00104 | 1.06 | 0.25 | 0.51 | 1.21 | 1.32 | 1.05 | 1.09 | 0.53 | 1.1 | 7B12.B3 (antibody, V domains shown, Mouse monoclonal from a hybridoma; also called MUC16 Glycosylation Antibody 7B12) VH: QVTLKESGPGILQPSQTLSLTCSFSGFSLSTVGMGVGWSRQPSGKGLEWLAHIWWDDEDKYYNPALKSRLTISKDTSKNQVFLKIANVDTADSATYYCTRIGTAQATDALDYWGQGTSVTVSS VL: DIVMTQAAPSVSVTPGESVSISCRSSKSLRKSNGNTYLYWFLQRPGQSPQRLIYYMSNLASGVPDRFSGRGSGTDFTLRISRVEAEDVGVYYCMQSLEYPLTFGGGTKLKIK | – |
